Results published in patent US20260007750A1.

Experiments:
Pak2 kinase = Pak2 kinase (UniProt Q13177); assay: cell-based or functional assay
[1] = target: HIV-1 Nef protein (wild-type, HIV-1 Clade B)

HIV-1 Nef protein (wild-type, HIV-1 Clade B)
phosphorylation of Pak2 at S55, quantitative phosphoproteomics of CAR T cells stimulated by NALM6 cells (Nef-WT compared to NefAxxA) (log2 fold change) (Pak2 kinase): 2.15
phosphorylation of Pak2 at S152, quantitative phosphoproteomics of CAR T cells stimulated by NALM6 cells (Nef-WT compared to NefAxxA) (log2 fold change) (Pak2 kinase): 1.17

B1: Pak2 kinase (protein)
chain: SDNGELEDKPPAPPVRMSSTIFSTGGKDPLSANHSLKPLPSVPEEKKPRHKIISIFSGTEKGSKKKEKERPEISPPSDFEHTIHVGFDAVTGEFTGMPEQWARLLQTSNITKLEQKKNPQAVLDVLKFYDSNTVKQKYLSFTPPEKDGFPSGTPALNAKGTEAPAVVTEEEDDDEETAPPVIAPRPDHTKSIYTRSVIDPVPAPVGDSHVDGAAKSLDKQKKKTKMTDEEIMEKLRTIVSIGDPKKKYTRYEKIGQGASGTVFTATDVALGQEVAIKQINLQKQPKKELIINEILVMKELKNPNIVNFLDSYLVGDELFVVMEYLAGGSLTDVVTETCMDEAQIAAVCRECLQALEFLHANQVIHRDIKSDNVLLGMEGSVKLTDFGFCAQITPEQSKRSTMVGTPYWMAPEVVTRKAYGPKVDIWSLGIMAIEMVEGEPPYLNENPLRALYLIATNGTPELQNPEKLSPIFRDFLNRCLEMDVEKRGSAKELLQHPFLKLAKPLSSLTPLIMAAKEAMKSNR
Pak2 phosphorylation by gel electrophoresis / Western blot [1]: Nef variants that promote CAR T cell activity in vivo (Nef WT, NefWP and NefD123G) but not NefAxxA expressing CARs also promoted Pak2 phosphorylation
Pak2 phosphorylation by gel electrophoresis / Western blot (NefD123G (Nef variant)): Nef variants that promote CAR T cell activity in vivo (Nef WT, NefWP and NefD123G) but not NefAxxA expressing CARs also promoted Pak2 phosphorylation
Pak2 phosphorylation by gel electrophoresis / Western blot (NefWP (Nef variant)): Nef variants that promote CAR T cell activity in vivo (Nef WT, NefWP and NefD123G) but not NefAxxA expressing CARs also promoted Pak2 phosphorylation
